Measured values published in the Immune Epitope Database (IEDB).
Blank lines part the entries; values can stand above or below the sequence they belong to.

Tests used:
[1] = molecular target: HLA-B*15:01; assay: IEDB peptide-MHC binding, purified MHC/direct/fluorescence; filed as Kd, often an IC50 or EC50 that approximates it; ≥ and ≤ were set here for values at or beyond the usual limits of such assays
[2] = molecular target: HLA-B*15:01; assay: IEDB peptide-MHC binding, purified MHC/competitive/radioactivity; filed as Kd, often an IC50 or EC50 that approximates it; ≥ and ≤ were set here for values at or beyond the usual limits of such assays
[3] = molecular target: HLA-A*01:01; assay: as above
[4] = molecular target: HLA-A*02:01; assay: IEDB peptide-MHC binding, purified MHC/competitive/fluorescence; ≥ and ≤ were set here for values at or beyond the usual limits of such assays
[5] = molecular target: HLA-A*26:01; assay: IEDB peptide-MHC binding, purified MHC/competitive/radioactivity; filed as Kd, often an IC50 or EC50 that approximates it; ≥ and ≤ were set here for values at or beyond the usual limits of such assays
[6] = molecular target: HLA-A*69:01; assay: IEDB peptide-MHC binding, purified MHC/direct/fluorescence; filed as Kd, often an IC50 or EC50 that approximates it; ≥ and ≤ were set here for values at or beyond the usual limits of such assays
[7] = molecular target: HLA-A*02:01; assay: as above
[8] = molecular target: HLA-B*53:01; assay: IEDB peptide-MHC binding, purified MHC/competitive/radioactivity; filed as Kd, often an IC50 or EC50 that approximates it; ≥ and ≤ were set here for values at or beyond the usual limits of such assays
[9] = molecular target: HLA-B*51:01; assay: as above
[10] = molecular target: HLA-A*30:02; assay: as above
[11] = molecular target: HLA-B*07:02; assay: IEDB peptide-MHC binding, purified MHC/direct/fluorescence; filed as Kd, often an IC50 or EC50 that approximates it; ≥ and ≤ were set here for values at or beyond the usual limits of such assays
[12] = molecular target: HLA-B*46:01; assay: as above; details: source organism: Yellow fever virus
[13] = molecular target: HLA-A*24:02; assay: IEDB peptide-MHC binding, purified MHC/competitive/radioactivity; filed as Kd, often an IC50 or EC50 that approximates it; ≥ and ≤ were set here for values at or beyond the usual limits of such assays
[14] = molecular target: HLA-B*58:01; assay: IEDB peptide-MHC binding, purified MHC/direct/fluorescence; filed as Kd, often an IC50 or EC50 that approximates it; ≥ and ≤ were set here for values at or beyond the usual limits of such assays; details: source organism: Salmonella enterica subsp. enterica serovar Typhimurium
[15] = source organism: Dengue virus 4 Philippines/H241/1956
[16] = source organism: Sudan ebolavirus
[17] = source organism: Dengue virus 2 Jamaica/1409/1983
[18] = source organism: Vaccinia virus WR
[19] = source organism: Salmonella enterica subsp. enterica serovar Typhimurium
[20] = source organism: Dengue virus 3 Martinique/1243/1999
[21] = source organism: Dengue virus 1 Singapore/S275/1990
[22] = source organism: Dengue virus 4 Dominica/814669/1981
[23] = source organism: Dengue virus 2 Peru/IQT2913/1996
[24] = source organism: Dengue virus 1 Brazil/97-11/1997

Kd ([1]; source organism: Haemophilus influenzae): 478 nM
Sequence: LQKGGVIVY

Sequence: LSIPHDLMEF
Kd [2, 15]: 5.99 nM
Kd [3, 15]: ≥ 36200 nM

Sequence: LTPKAQREI
IC50 ([4]; source organism: Variola virus): ≥ 71400 nM

Sequence: LVCKDHLAS
IC50 [4, 16]: ≥ 185000 nM

Sequence: MISRMLINRF
Kd [5, 17]: 8330 nM

Sequence: MLIEVILTA
Kd [2, 18]: 207 nM

Sequence: MLSEGRMNS
IC50 ([4]; source organism: Vaccinia virus): 6520 nM

Sequence: MMIDDFGTA
Kd [2, 18]: 7.6 nM

Sequence: MMLAQAYYG
Kd [6, 19]: 3190 nM
Kd [1, 19]: 5780 nM
Kd [7, 19]: 273 nM

Sequence: MPLVMAWRT
Kd [8, 15]: 88.4 nM
Kd [9, 15]: 693 nM

Sequence: MSFRDLGRVM
Kd [9, 17]: ≥ 38300 nM

Sequence: NGLITSTVT
IC50 [4, 16]: ≥ 118000 nM

Kd ([7]; source organism: Homo sapiens): 2860 nM
Sequence: PLTYLEYPI

Sequence: PPTAGVLARW
Kd [8, 20]: 4930 nM

Sequence: QGDNDNWWT
IC50 ([4]; source organism: Zaire ebolavirus): ≥ 283000 nM

Sequence: QLSGLGINAV
IC50 ([4]; source organism: Hepatitis C virus subtype 1b): 123 nM

Sequence: QQMDPEHRQL
Kd [2, 20]: 118 nM

Sequence: RFKGEDGCWY
Kd [10, 21]: 8.19 nM

Kd ([11]; source organism: Homo sapiens): 200 nM
Sequence: RPKSNIVLL

Sequence: RPPIFIRRL
Kd ([11]; source organism: Human herpesvirus 4 strain B95-8): 356 nM

Sequence: RSGVPPKVV
IC50 [4, 16]: ≥ 80200 nM

Sequence: SIGKMFESTY
Kd [3, 22]: 17000 nM
Kd [10, 22]: 37.4 nM

Sequence: SIQDNQVAY
Kd [12]: 19700 nM

Sequence: SLFSLLPGV
Kd ([6]; source organism: Amur virus): ≤ 1 nM
Kd ([7]; source organism: Amur virus): ≤ 1 nM

Sequence: SVIEKMETL
Kd [5, 17]: 152 nM

Sequence: TMKHKKATY
Kd [2, 17]: 83.4 nM
Kd [10, 17]: 1200 nM

Sequence: TMRHKKATY
Kd [2, 23]: 442 nM
Kd [10, 23]: ≥ 76900 nM

Sequence: TPVHSWEDI
Kd [8, 15]: 2220 nM
Kd [9, 15]: 16000 nM

Sequence: TSIGLLCVM
Kd [5, 21]: 2450 nM

Sequence: TTLPSQNST
IC50 [4, 16]: ≥ 206000 nM

Sequence: TVITPMMRH
Kd [5, 24]: 1700 nM

Sequence: TWAKNIQTAI
Kd [13, 17]: 512 nM

Sequence: VGMGEAAAIF
Kd [13, 24]: 8640 nM

Sequence: VIIHVIEHL
Kd [2, 18]: 1190 nM

Sequence: VMATEEPTT
IC50 [4, 16]: ≥ 144000 nM

Sequence: VPLAGPLIA
Kd [9, 24]: 14800 nM

Sequence: VPLQWIASAI
Kd ([9]; source organism: Dengue virus 3 Sri Lanka/1266/2000): 21.7 nM

Sequence: WPLNEAIMAV
Kd [9, 17]: 470 nM

Sequence: WYGMEIRPI
Kd [13, 20]: 3020 nM

Sequence: YFIKHVLAF
Kd [2, 18]: 2.53 nM

Sequence: YLAGAGLLF
Kd [2, 17]: 1.86 nM
Kd [5, 17]: 2130 nM
Kd [13, 17]: 28.5 nM

Sequence: YLGPTIRVW
Kd [14]: 127 nM
Kd [1, 19]: 1220 nM
Kd [7, 19]: 1870 nM
Kd [11, 19]: 13200 nM

Sequence: YSQIGAGVY
Kd [2, 17]: 15.6 nM
Kd [3, 17]: 63.4 nM
Kd [10, 17]: 2.03 nM
